Data published in the supplement of paper PMC10065799, “High-throughput profiling of sequence recognition by tyrosine kinases and SH2 domains using bacterial peptide display” (eLife, 2023).

What follows are sequences tested on AncSZ (assay: phosphorylation enrichment, bacterial display (enrichment ratio); higher = better substrate or ligand; peptides without Tyr show the background).
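Note: 11-residue human phosphosite peptides and single-mutation variants displayed on the E. coli surface, counted by deep sequencing, each peptide's frequency after selection divided by its frequency in the unselected input library; frequency after pTyr selection over input frequency; kinase dosed for 20-30% of maximal phosphorylation in three min.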

Sequence | phosphorylation enrichment
VHHLVYHHHHH [CACNA1H_Y519] | 0.777
CLMILYRLKER [PTPRR_Y249] | 1.26
GKFFQYDTWKQ [IGF2_Y116] | 0.766
LSGFCYRLSDQ [PDCD6_Y124_G123C] | 1.66
NVFGNYNQQPS [HNRNPA2B1_Y306_D302V] | 0.492
CTLNVYRQLHN [LUZP1_Y1036_S1034N] | 1.05
VVTFSYKPPGN [RBL2_Y544] | 0.634
SLLLSYYLIKW [NUP160_Y773_P768S] | 1.12
LEPHIYAVADV [MYO9A_Y216] | 0.926
KVALPYKPFFF [POLE_Y100_YF] | 0.743
AGREIYESDKC [TTN_Y4424] | 0.949
PVFIKYLPEWT [PSEN1_Y240_L235P] | 1.45
KKLHKYNTQFQ [PIK3R1_Y452_E451K] | 0.577
LFDHIYTTQSD [RET_Y928] | 2.46
DSFATYFRWVL [H2BW1_Y84_R87W] | 1.53
FEKFLYFLPAS [DYNC2H1_Y346_H341Y_YF] | 1.5
NQDRTYYERVR [SPEN_Y632_S635R] | 0.617

Sequence | phosphorylation enrichment
PLGKDYRKVEG [MAP1A_Y1909_A1912V] | 1.27
CRERPYGGGGG [FUS_Y526_R521C] | 0.631
QFNIQYSSSAA [ERBB2IP_Y981_YF] | 1.11
FADGVYLALEE [DUOX2_Y70_Q71L_YF] | 1.63
AKQVGYENAGT [PC_Y304] | 0.633
YFVVEYRDQKP [MUC17_Y4332] | 2.1
FAKTQYPDIFA [CRX_Y63_V66I_YF] | 0.667
EHAGEYGAEAL [HBA1_Y25_A20E] | 0.832
RLCQDYDIIGP [ANK1_Y1073_T1075I] | 2.56
AAAAMYTFLPD [MYORG_Y36] | 1.26
RRESQYQENRG [LRCH3_Y354] | 0.835
CKQGKYLNWDA [ATM_Y54_S49C] | 0.921
KGELRYMHSRV [ABCD1_Y281] | 0.568
SFHCSYSEIKD [DCLRE1C_Y322_S320C] | 1.06
AAVDNYCRHNF [HLA-DRB1_Y107_T106N_YF] | 0.41
RSFPSYYTSHV [NEFL_Y442] | 1.05

Each sequence was assayed against EPHB2 (UniProt P29323) in the same assay as above.
Sequence of EPHB2 (P29323 whole entry, looked up): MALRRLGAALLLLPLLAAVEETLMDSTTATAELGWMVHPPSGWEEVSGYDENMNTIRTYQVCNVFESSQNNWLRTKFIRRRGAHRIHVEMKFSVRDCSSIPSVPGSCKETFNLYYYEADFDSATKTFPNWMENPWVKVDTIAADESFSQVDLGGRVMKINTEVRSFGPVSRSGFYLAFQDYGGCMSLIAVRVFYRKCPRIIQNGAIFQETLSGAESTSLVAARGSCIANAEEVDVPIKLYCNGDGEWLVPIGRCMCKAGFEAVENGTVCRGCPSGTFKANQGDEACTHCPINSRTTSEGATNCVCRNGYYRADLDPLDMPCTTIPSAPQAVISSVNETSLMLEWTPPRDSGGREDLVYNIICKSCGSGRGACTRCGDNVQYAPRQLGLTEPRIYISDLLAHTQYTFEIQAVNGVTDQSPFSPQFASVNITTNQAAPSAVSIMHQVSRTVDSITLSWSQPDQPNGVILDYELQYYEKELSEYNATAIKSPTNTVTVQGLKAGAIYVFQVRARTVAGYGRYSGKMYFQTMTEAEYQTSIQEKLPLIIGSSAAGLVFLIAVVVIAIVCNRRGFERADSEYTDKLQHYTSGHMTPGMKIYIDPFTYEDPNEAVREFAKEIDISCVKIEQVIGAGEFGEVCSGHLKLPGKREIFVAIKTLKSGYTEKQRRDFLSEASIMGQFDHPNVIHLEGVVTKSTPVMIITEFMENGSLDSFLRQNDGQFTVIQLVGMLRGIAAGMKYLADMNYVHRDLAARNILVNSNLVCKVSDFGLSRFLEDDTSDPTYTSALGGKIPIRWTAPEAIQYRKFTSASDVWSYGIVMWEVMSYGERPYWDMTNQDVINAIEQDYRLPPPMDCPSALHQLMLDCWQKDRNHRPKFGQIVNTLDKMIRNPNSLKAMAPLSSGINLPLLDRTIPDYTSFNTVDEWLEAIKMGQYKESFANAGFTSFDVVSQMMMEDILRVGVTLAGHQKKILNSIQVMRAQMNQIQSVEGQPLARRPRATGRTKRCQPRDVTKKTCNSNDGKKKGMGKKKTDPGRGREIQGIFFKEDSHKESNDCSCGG

Sequence | phosphorylation enrichment
VHHLVYHHHHH [CACNA1H_Y519] | 0.696
CLMILYRLKER [PTPRR_Y249] | 0.603
GKFFQYDTWKQ [IGF2_Y116] | 0.564
LSGFCYRLSDQ [PDCD6_Y124_G123C] | 1.28
NVFGNYNQQPS [HNRNPA2B1_Y306_D302V] | 0.375
CTLNVYRQLHN [LUZP1_Y1036_S1034N] | 0.585
VVTFSYKPPGN [RBL2_Y544] | 0.476
SLLLSYYLIKW [NUP160_Y773_P768S] | 0.539
LEPHIYAVADV [MYO9A_Y216] | 1.2
KVALPYKPFFF [POLE_Y100_YF] | 0.715
AGREIYESDKC [TTN_Y4424] | 0.607
PVFIKYLPEWT [PSEN1_Y240_L235P] | 0.715
KKLHKYNTQFQ [PIK3R1_Y452_E451K] | 0.46
LFDHIYTTQSD [RET_Y928] | 2
DSFATYFRWVL [H2BW1_Y84_R87W] | 3.54
FEKFLYFLPAS [DYNC2H1_Y346_H341Y_YF] | 0.735
NQDRTYYERVR [SPEN_Y632_S635R] | 0.467

Sequence | phosphorylation enrichment
PLGKDYRKVEG [MAP1A_Y1909_A1912V] | 0.768
CRERPYGGGGG [FUS_Y526_R521C] | 0.406
QFNIQYSSSAA [ERBB2IP_Y981_YF] | 0.542
FADGVYLALEE [DUOX2_Y70_Q71L_YF] | 0.991
AKQVGYENAGT [PC_Y304] | 0.446
YFVVEYRDQKP [MUC17_Y4332] | 0.909
FAKTQYPDIFA [CRX_Y63_V66I_YF] | 0.373
EHAGEYGAEAL [HBA1_Y25_A20E] | 0.543
RLCQDYDIIGP [ANK1_Y1073_T1075I] | 12.7
AAAAMYTFLPD [MYORG_Y36] | 1.46
RRESQYQENRG [LRCH3_Y354] | 0.494
CKQGKYLNWDA [ATM_Y54_S49C] | 0.494
KGELRYMHSRV [ABCD1_Y281] | 0.348
SFHCSYSEIKD [DCLRE1C_Y322_S320C] | 0.59
AAVDNYCRHNF [HLA-DRB1_Y107_T106N_YF] | 0.234
RSFPSYYTSHV [NEFL_Y442] | 1.34
